{"source": "paper PMC10985467", "about": "(Molecular Cancer Therapeutics, 2024)", "binders": {"B1": {"name": "ADCT-602 (hLL2-C220 site-specifically conjugated to the PBD dimer payload tesirine, SG3249) (antibody, V domains shown)", "VH": "QVQLVQSGAEVKKPGSSVKVSCKASGYTFTSYWLHWVRQAPGQGLEWIGYINPRNDYTEYNQNFKDKATITADESTNTAYMELSSLRSEDTAFYFCARRDITTFYWGQGTLVTVSS", "VL": "DIQLTQSPSSLSASVGDRVTMSCKSSQSVLYSANHKNYLAWYQQKPGKAPKLLIYWASTRESGVPSRFSGSGSGTDFTFTISSLQPEDIATYYCHQYLSSWTFGQGTKVEIK"}}, "biological_target": "CD22 on human lymphoma and leukemia cell lines (Homo sapiens (Human)., UniProt P20273)", "sequence (P20273 20-847)": "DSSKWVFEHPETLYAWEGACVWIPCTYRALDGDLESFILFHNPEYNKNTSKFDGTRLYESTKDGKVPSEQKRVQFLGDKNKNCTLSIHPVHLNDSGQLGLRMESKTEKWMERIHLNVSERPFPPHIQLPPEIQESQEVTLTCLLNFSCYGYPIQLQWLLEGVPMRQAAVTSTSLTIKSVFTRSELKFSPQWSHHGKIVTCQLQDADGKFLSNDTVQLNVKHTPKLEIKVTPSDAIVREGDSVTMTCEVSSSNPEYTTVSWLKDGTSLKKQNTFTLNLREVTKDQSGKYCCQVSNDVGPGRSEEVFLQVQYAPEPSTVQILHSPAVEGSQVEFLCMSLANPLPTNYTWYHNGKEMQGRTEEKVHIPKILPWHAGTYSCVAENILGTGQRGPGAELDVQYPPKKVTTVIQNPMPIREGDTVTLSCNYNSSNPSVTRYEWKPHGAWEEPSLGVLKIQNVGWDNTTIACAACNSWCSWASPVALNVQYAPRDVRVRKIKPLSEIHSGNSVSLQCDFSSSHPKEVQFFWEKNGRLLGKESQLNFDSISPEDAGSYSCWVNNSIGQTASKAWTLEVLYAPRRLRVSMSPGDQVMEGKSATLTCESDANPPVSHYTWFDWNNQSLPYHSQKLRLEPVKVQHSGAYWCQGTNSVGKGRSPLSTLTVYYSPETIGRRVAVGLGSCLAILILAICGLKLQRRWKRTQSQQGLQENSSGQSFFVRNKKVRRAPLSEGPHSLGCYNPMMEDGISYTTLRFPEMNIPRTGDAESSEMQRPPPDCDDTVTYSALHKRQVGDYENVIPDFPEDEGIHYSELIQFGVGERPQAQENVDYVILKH", "test": "cell-based or functional assay", "data": [{"binder": "B1", "values": [{"measurement": "IC50 of in vitro cytotoxicity (MTS, 96 hours), DO HH-2 cells", "value": 60, "unit": "pM"}, {"measurement": "IC50 of in vitro cytotoxicity (MTS, 96 hours), Daudi cells", "value": 70, "unit": "pM"}, {"measurement": "IC50 of in vitro cytotoxicity (MTS, 96 hours), GRANTA-519 cells", "value": 20, "unit": "pM"}, {"measurement": "IC50 of in vitro cytotoxicity (MTS, 96 hours), MEC-2 cells", "value": 180, "unit": "pM"}, {"measurement": "IC50 of in vitro cytotoxicity (MTS, 96 hours), NALM-6 cells", "value": 110, "unit": "pM"}, {"measurement": "IC50 of in vitro cytotoxicity (MTS, 96 hours), NAMALWA cells", "value": 2270, "unit": "pM"}, {"measurement": "IC50 of in vitro cytotoxicity (MTS, 96 hours), REH cells", "value": 50, "unit": "pM"}, {"measurement": "IC50 of in vitro cytotoxicity (MTS, 96 hours), Ramos cells", "value": 60, "unit": "pM"}]}]}
